Results published in patent US20210162028A1, “Methods for Inducing Intermittent Fasting and Modulating Autophagy” (The Hong Kong Polytechnic University, priority 2019, published 2021).
Entries after “also recorded” stand apart in the source; their conditions may differ.

Key:
[1] = Fat pad and organ mass at end of treatment; format: in vivo, mouse; conditions: DIO C57BL/6J male mice on HFD, about 600 U once a week, 34 weeks
From the text: Other than WAT and BAT, obesity is associated with excessive accumulation of lipids in the liver (hepatic steatosis). Indeed, the liver of vehicle-treated DIO mice was markedly enlarged (FIG. 7A), with a mass about 3 times (4.68 g) that of the lean control (1.73 g) (FIG. 7B).
Other than liver, obesity is also commonly associated with lipid accumulation in the kidney (renal steatosis) and heart (cardiac steatosis), causing lipotoxicity and dysfunction of these organs. Indeed, there was an increase in kidney and heart mass in DIO mice treated with vehicle (FIG. 8A and FIG. 9A).

[2] = Hepatic steatosis (oil Red O / H&E staining, liver triglyceride); format: in vivo, mouse; conditions: DIO C57BL/6J male mice on HFD; for Lipid in liver (H&E staining): 11 weeks after treatment
[3] = Whitening of brown adipose tissue (size, mass, H&E histology); format: in vivo, mouse; conditions: DIO C57BL/6J male mice on HFD; 600 U once a week, 12 weeks
From the text: FIG. 53 illustrates that administration of 600 U N-ABD094-rhArg (SEQ ID NO: 50) once a week to C57BL/6J male mice with pre-existing HFD-induced obesity [HFD (rhArg) group] for 12 weeks could effectively reverse whitening of brown adipose tissue (BAT), with lipids stored as a large single globule (characteristic feature of white adipocytes) changing to storage of lipids in multiple small droplets (characteristic feature of brown adipocytes), which was in line with the findings of induction of lipophagy observed by TEM. […] (B) The mass of iBAT of the 3 groups of mice was in line with the size shown in A. *P<0.05, one-way ANOVA followed by Bonferroni test. Data are expressed as mean±SEM, n=5 for each group.
After prolonged feeding on a HFD, there was a further increase in the size (FIG. 53A) and weight of the interscapular BAT (FIG. 53B) in vehicle-treated DIO mice [HFD (vehicle) group] in comparison to the lean control mice [CD (vehicle) group], which was correlated with the presence of massive amount of enlarged white-like unilobular cells (FIG. 53A). As observed under transmission electron microscopy, brown adipocyte in mice fed with HFD [HFD (vehicle) group] had massive enlarged lipid droplets (FIG. 52A). […] Many autophagosomes were actively forming and engulfing the lipid droplets (FIG. 52B). […]

[4] = test system: primary culture of mouse hypothalamic neurons; test: Western blot of primary culture of mouse hypothalamic neurons; format: cell-based; conditions: 2 U/mL
From the text: The arcuate nucleus in the hypothalamus has received extensive attention as an integrator and regulator of energy homeostasis and appetite. These neurons can rapidly sense metabolic fluctuations in the blood. Others have recently implicated autophagy in central appetite regulation and leptin sensitivity (Park et al., Nature Communications. 2020; 11: 1914). Knockdown of an essential autophagy gene autophagy-related 7 (Atg7), leads to accumulation of p62 in POMC neurons, resulting in an increase in bodyweight and appetite. Besides, it has been shown that amino acid deprivation/imbalance can trigger a reduction in food intake via eIF2α/ATF4 pathway [Maurin et al., Cell Rep. 2014 Feb. 6(3): 438-444]. In our study, mature hypothalamic neurons (after 14 day in vitro culture) were exposed to vehicle or 2 U/mL N-ABD094-rhArg (SEQ ID NO: 50) for 1 hr, 4 hrs, 8 hrs or 24 hrs. After treatment, proteins were harvested from whole cell lysate of neurons and subjected to western blot analysis for examining the short-term effect of arginine depletion on hypothalamic neurons. Autophagy markers (LC3B and p62) were analyzed. […] These findings supported that N-ABD094-rhArg (SEQ ID NO: 50) induced an autophagic flux in hypothalamic neurons.

[5] = Glucose tolerance test (GTT); format: in vivo, mouse
[6] = test system: hepatocellular carcinoma; test: Frequency of hepatocellular carcinoma at autopsy; format: in vivo, mouse
From the text: Development of neoplasm in the liver is one of the major characteristics of aging in C57BL/6J male mice with long-term feeding on a HFD, which may be related to the development of severe non-alcoholic fatty liver disease. Treatment with N-ABD094-rhArg [SEQ ID NO: 50] can effectively reverts hepatic steatosis and lower serum concentrations of liver damage biomakers ALT and AST (FIG. 7). Autopsy performed at the end of experiment confirmed the presence of hepatocellular carcinoma (FIG. 28A) in around 40% of C57BL/6J male mice that had been fed on a HFD for 46 weeks (12+34 weeks) starting from 5-week old [HFD (vehicle) group in FIG. 1] (FIG. 28B). The incidence rate even increased to 100% in mice fed on the HFD for 61 weeks (12+49 weeks) [HFD (vehicle) group in FIG. 3] (FIG. 28C). […] These findings support that rhArg has potent effects on prevention of liver cancer.

[7] = Inverted grid hanging test; format: in vivo, mouse
[8] = test system: hepatocyte; test: Transmission electron microscopy of liver (hepatocytes); format: in vivo, mouse; conditions: for TEM of liver: autophagosomes / TEM of liver: lipid droplets: DIO C57BL/6J male mice on HFD, 3 weeks, Day 3
From the text: FIG. 47 illustrates the liver examined by transmission electron microscopy at Day 1, Day 3, Day 5 and Day 7 of the 7-day intermittent after N-ABD094-rhArg injection.
The presence of autophagosome in liver after treatment for 3 weeks were examined by TEM (FIGS. 62, 63 and 64).
The presence of autophagosome in liver after treatment for 3 weeks were examined by transmission electron microscopy (FIGS. 71 and 72).

[9] = 300 U/week rhArg and/or 300 mg/kg metformin
[10] = rhArg weekly and/or 0.33 mg RA daily
[11] = HFD-fed male mice, 600 U once a week, 4 weeks

B1: N-ABD094-rhArg: recombinant human arginase fused to albumin binding domain ABD094 (SEQ ID NO: 50); engineered long-acting arginine-depleting enzyme (protein)
chain: MHHHHHHDEAVDANSLAEAKEAANAELDSYGVSDFYKRLIDKAKTVEGVEALKDAILAALPSGSNNNNNNGSGGMSAKSRTIGIIGAPFSKGQPRGGVEEGPTVLRKAGLLEKLKEQECDVKDYGDLPFADIPNDSPFQIVKNPRSVGKASEQLAGKVAEVKKNGRISLVLGGDHSLAIGSISGHARVHPDLGVIWVDAHTDINTPLTTTSGNLHGQPVSFLLKELKGKIPDVPGFSWVTPCISAKDIVYIGLRDVDPGEHYILKTLGIKYFSMTEVDRLGIGKVMEETLSYLLGRKKRPIHLSFDVDGLDPSFTPATGTPVVGGLTYREGLYITEEIYKTGLLSGLDIMEVNPSLGKTPEEVTRTVNTAVAITLACFGLAREGNHKPIDYLNPPK
modifications: N-ABD094-rhArg, Synthesized in the Lab
notes: engineered long-acting arginine-depleting enzyme
Kidney and heart mass [1]: significantly less than that of the vehicle-treated DIO mice
Mass of perirenal, inguinal and interscapular fat pad, relative to DIO mice treated with vehicle [1]: less than 20%
Liver mass ([1]; vehicle DIO 4.68 g, lean control 1.73 g): 1.39 g
Lipid droplets in liver (oil Red O) ([2]; 600 U once a week, 12 weeks): dramatic clearance of lipid droplets
Liver triglyceride concentrations ([2]; 600 U once a week, 12 weeks): reduced to a level similar to the lean control
Lipid in liver (H&E staining) ([2]; rhArg and/or RA): significant effect on diminishing lipid in liver
Lipid in liver (H&E staining) ([2]; rhArg and/or metformin): slight effect of diminishing lipid in liver
White-like unilobular cells in BAT (histology) [3]: almost complete remission of white-like unilobular cells
ATF4 level ([4]; 24 hrs): dramatic increase
Level of LC3B-II ([4]; after 1 hr and 4 hrs): significantly increased
Phosphorylation level of p70S6K1 ([4]; after 1 hr, 4 hrs, 8 hrs or 24 hrs): significantly decreased
Level of p62 ([4]; after 4 hrs and 8 hrs): significantly decreased
Proportion of glycosylated POMC ([4]; after 24 hrs): significantly increased
Phosphorylation level of eIF2α ([4]; at 8 hrs or 24 hrs): significant increase
Glucose tolerance in GTT ([5]; 16-month old DIO C57BL/6J male mice on HFD, once a week, at 12 weeks): effectively reverse impaired glucose tolerance
Glucose tolerance in GTT ([5]; 17-month old C57BL/6J male mice on chow diet, once a week, at 15 weeks): to a level better than mice in CD Young (vehicle) group; also recorded: effectively improve glucose tolerance
Glucose tolerance in GTT ([5]; DIO C57BL/6J male mice on HFD, 300 U/week rhArg and/or 300 mg/kg metformin, after 7 weeks): significant improvement on glucose tolerance
Glucose tolerance in GTT ([5]; DIO C57BL/6J male mice on HFD, 600 U once a week, after 3 weeks (reduced daily food intake experiment)): improved glucose tolerance
Glucose tolerance in GTT ([5]; DIO C57BL/6J male mice on HFD, 600 U once a week, at 3 weeks (artificial IF experiment)): significant improvement in glucose tolerance by 3 weeks of treatment
Glucose tolerance in GTT ([5]; DIO C57BL/6J male mice on HFD, about 600 U once a week, at 15 and 31 weeks): significant improvement in glucose tolerance to a level comparable with the lean control mice; also recorded: effectively reverse impaired glucose tolerance
Glucose tolerance in GTT ([5]; DIO C57BL/6J male mice on HFD, rhArg weekly and/or 0.33 mg/day RA, after 7 weeks): cannot relieve glucose intolerance
Glucose tolerance in GTT ([5]; DIO ICR female mice on HFD, once a week, at 16 and 30 weeks): Improved glucose tolerance
Development of hepatocellular carcinoma ([6]; DIO C57BL/6J male mice on HFD, weekly for 34 weeks, vehicle around 40%): none of the mice developed hepatocellular carcinoma
Development of hepatocellular carcinoma ([6]; DIO C57BL/6J male mice on HFD, weekly for 49 weeks, vehicle 100%): none of the mice developed hepatocellular carcinoma
Development of hepatocellular carcinoma ([6]; DIO ICR female mice on HFD, weekly for 56 weeks, vehicle over 30%): none of the mice in HFD (rhArg) group developed hepatocellular carcinoma; also recorded: effectively prevent the development of hepatocellular carcinoma
Inverted grid hanging test: endurance (latency to fall) ([7]; DIO C57BL/6J male mice on HFD, weekly for 42 weeks): endurance even higher than mice in CD (vehicle) group
Inverted grid hanging test: performance ([7]; DIO ICR female mice on HFD, weekly, at 54 weeks): significantly better than mice in HFD (vehicle) group
TEM of liver: autophagosomes [8, 9]: autophagosome was rarely seen
TEM of liver: lipid droplets [8, 9]: significant decrease in lipid droplet size
TEM of liver: autophagosomes ([8]; 300 U/week rhArg and/or 300 mg/kg metformin, listed as N-ABD-rhArg (SEQ ID NO: 50)): no autophagosome is observed
TEM of liver: autophagosomes [8, 10]: autophagosome was rarely seen
TEM of liver: lipid droplets [8, 10]: significant decrease in lipid droplet size
TEM of liver: autophagosomes ([8]; rhArg weekly and/or 0.33 mg RA daily, listed as N-ABD-rhArg (SEQ ID NO: 50)): no autophagosome is observed
TEM of liver, Day 1 of the 7-day cycle [8, 11]: autophagosomes and autolysosomes were found in the hepatocye
TEM of liver, Day 3 of the 7-day cycle [8, 11]: extensive lipophagy was observed
TEM of liver, Day 5 of the 7-day cycle [8, 11]: autolysosome and lipophagy became rare
TEM of liver, Day 7 of the 7-day cycle [8, 11]: no autophagosome and no lipophagy was observed
